Assay: soluble on expression in E. coli; label from the status in PepcDB or PDB records
With “MGSDKIHHHHHHMKELAIASRDLVSPDGLAGYLRFVNAQPLLRPEEERDLARRLRDHGDVDAAKDLVLSHLRFVVRVARGYRGYGLQEADLIQEGNIGLMKAVKRYDPDHGVRLVSFAVHWVKAEIHEFILRNWRIVKVATTKAQRKLFFNLRSSRSHTGWMSGEESAAMADDLGVTQAQVLEMEGRMSGYDYSLNLEPDEEREGGRAPDLADPTGSPIEQLVERDWDQQQHRALHTALSALPQRDRYIIENRWLSDDPKTLQVLGDELGVSAERVRQLEKSSMGKLRQQMLTTAAVA” the “soluble on expression in E. coli” value was “not soluble”.
With “MLNTILVALDGSEIAERVIQTLGYLVLSPNTNVILCHVFPAPESEIELPADRPQPDLPNFSYFNIDKQMQSYQERLSVKSELELVMGDPADEIIRLANIYKADLVVIGSRGLTGMNRIVQGSVSTQVMEAANCSVLVVKPARN” the “soluble on expression in E. coli” value was “not soluble”.
For “MSLKIVRILEKDLPITSPGANAVVDFAGLTTSAVAIVTDAFRDGKPLVGYGFGSIGRWSVGGMLRERFIPRILAVEPASLQDETGNIDPFACWNAAMRNEKPGGHGDRATALGALDMALWDLRAKADGVPLYRLLADRYRDGQADEDVAVYAAGGYYQPGSNYRSLQDELKGYIDRGYNEVKIKIGGAPLAEDMRRIEAAIAVLGDGARLAVDANGRFDLETALAYGRAMSDYGLRWYEEPGDPLDFRLMAVLAEHYDGPLATGENLFSSQDARNLLRYGGMRAERDFVQFDCGLAYGLPDYLKVLDIMRRHGWSPRRLHPHGGHQMSLHLAAGLGLGGNESYPGVFQPLGGFADCSKVENGRVRLPDAPGVGLELKSELKTWLDEAFEEGHHHHHH”, the “soluble on expression in E. coli” value was “not soluble”.
With “QYRPMSEKQFSRPVLIVPPQINKYYIFDLSPANSFVQYALKNGLSTFIISWRNPDIRHREWGLSSYVEAAEQAMNICRAISGAREVNLVGACAGGLTIAALLGHLQVKRQTRRVASATYMVSLLDSQIDSPATLFIDEQALEAAKRRSYQRGVLEGSEMSRVFSWMRPNDLIWTYWINNYLLGKSPPPFDILYWNNDTTRLPAALHGDLLDFFKHNPLSHAGGLEVCGTPIDLQKVTVDSFSVAGINDHITPWDSVYRSTLLLGGDRRFVLANSGHVQSILNP” the “soluble on expression in E. coli” value was “not soluble”.
With “MSCVHYKFSSKLNYDTVTFDGLHISLCDLKKQIMGREKLKAADCDLQITNAQTKEEYTDDNALIPKNSSVIVRRIPIGGVKSTSKTYVISRTEPAMATTKAIDDSSASISLAQLTKTANLAEANASEEDKIKAMMSQSGHEYDPINYMKKPLGPPPPSYTCFRCGKPGHYIKNCPTNGDKNFESGPRIKKSTGIPRSFMMEVKDPNMKGAMLTNTGKYAIPTIDAGRLLFHKLGTMGHKQIDTYFWNRGDVYGATATQITHLREAYAIGKKEKPPFLPEEPSSSSEEDDPIPDELLCLICKDIMTDAVVIPCCGNSYCDECIRTALLESDEHTCPTCHQNDVSPDALIANKFLRQAVNNFKNETGYTKRLRKQLPPPPPPIPPPRPLIQRNLQPLMRSPISRQQDPLMIPVTSSSTHPAPSISSLTSNQSSLAPPVSGNPSSAPAPVPDITATVSISVHSEKSDGPFRDSDNKILPAAALASEHSKGTSSIAITALMEEKGYQVPVLGTPSLLGQSLLHGQLIPTTGPVRINTARPGGGRPGWEHSNKLGYLVSPPQQIRRGERSCYRSINRGRHHSERSQRTQGPSLPATPVFVPVPPPPLYPPPPHTLPLPPGVPPPQFSPQFPPGQPPPAGYSVPPPGFPPAPANLSTPWVSSGVQTAHSNTIPTTQAPPLSREEFYREQRRLKEEEKKKSKLDEFTNDFAKELMEYKKIQKERRRSFSRSKSPYSGSSYSRSSYTYSKSRSGSTRSRSYSRSFSRSHSRSYSRSPPYPRRGRGKSRNYRSRSRSHGYHRSRSRSPPYRRYHSRSRSPQAFRGQSPNKRNVPQGETEREYFNRYREVPPPYDMKAYYGRSVDFRDPFEKERYREWERKYREWYEKYYKGYAAGAQPRPSANRENFSPERFLPLNIRNSPFTRGRREDYVGGQSHRSRNIGSNYPEKLSARDGHNQKDNTKSKEKESENAPGDGKGNKHKKHRKRRKGEESEGFLNPELLETSRKSREPTGVEENKTDSLFVLPSRDDATPVRDEPMDAESITFKSVSEKDKRERDKPKAKGDKTKRKNDGSAVSKKENIVKPAKGPQEKVDGERERSPRSEPPIKKAKEETPKTDNTKSSSSSQKDEKITGTPRKAHSKSAKEHQETKPVKEEKVKKDYSKDVKSEKLTTKEEKAKKPNEKNKPLDNKGEKKKKK” the “soluble on expression in E. coli” value was “soluble”.
With “SLKSLNHISLLCRSVEESISFYQNVLGFLPIRRPDSFDFDGAWLFGHGIGIHLLQSPEPEKLLKKTEINPKDNHISFQCESMEAVEKKLKEMEIEYVRAVVEEGGIQVDQLFFHDPDAFMIEICNCDSLPVIPLAGEMARSCSRLNIRQLVQPTQIHEG” the “soluble on expression in E. coli” value was “soluble”.
For “MADILLLDNIDSFTYNLVDQLRSSGHRVVIYRNHIAADNIIERLQQLEQPVLMLSPGPGTPAQAGCMPELLQRLQGQLPMIGICLGHQAIIEAYGGHVGQAGEILHGKASAIEHDGQGMFAGMPNPLPVARYHSLVGSNLPAELTVNARFGEMVMAVRHDAHRVCGYQFHPESILTTHGARLLEQTLAWALA”, the “soluble on expression in E. coli” value was “not soluble”.
For “MGHHHHHHSHMVKDIIIASFYKFIPLNDFESLREPILTKMHEIGIKGTIILAHEGVNGGFAGNREQMNVFYDYLRSDSRFADLHFKETYDNKNPFDKAKVKLRKEIVTMGVQKVDPSYNAGTYLSPEEWHQFIQDPNVILLDTRNDYEYELGTFKNAINPDIENFREFPDYVQRNLIDKKDKKIAMFCTGGIRCEKTTAYMKELGFEHVYQLHDGILNYLESIPESESLWEGKCFVFDDRVAVDQKLDRVYPQLPQDYKYEREQK”, the “soluble on expression in E. coli” value was “soluble”.
In the case of “MAHHHHHHMVGLVKPLFPNTLLTEAQDERRLLTLVLDLDETLVSNRDSRQSAAVLRPYCLHVLNALRHMKELEIVLWTASTKETALPVVDQLHKTGIIFDDIIFRNSIWFTQPIHTKDLRLLGRDMNRVLIVDNSVGCCKLHPRNALLVEDFHGVKRREDAALVNVYYVVDALLRMMRERTMPVSEGLGCLMAEGQLCHPVSYDLPAFFKCIPLTEVPELKRPPVGRFARANTAPPNTSIMQHWVY”, the “soluble on expression in E. coli” value is reported as “soluble”.
For “MILRYATNLKLAKELYQASKPKLQEDKGMIELFEHTFGLQKELVKYVGIAEATTAALYSASFINKNISRLASLSTIGILSVAAYKHFEAGQGKKGAQHALDLLGLATLSLLDTFSCNKKLEHHHHHH”, the “soluble on expression in E. coli” value was “not soluble”.
With “VQQTERAVMLRFGRVVESDVKPGLHFKIPYVNQVRKFDARLLTLDAPTQRFLTLEKKAVMVDAYAKWRVADAERFYTATSGLKQIADERLSRRLEAGLRDQFGKRTLHEVVSGERDALMGDITASLNRMAQKELGIEVIDVRVKAIDLPKEVNRSVFERMSTEREREAREHRAKGRELAEGIRADADRQRRVIVAEAYRESEETRGDGDSKAAAIYAKAYNQDPEFYSFYRSLKAYRESFAEKRDVLVLDPSSEFFRY” the “soluble on expression in E. coli” value was “not soluble”.
With “MTDVVVAGGGLAGLVAARHLAESGRDVTVFEQRSDVGGRVRTVHEDGYTFDRGFQVMFTAYPAAKRELDIEALAPRTFTPGATIASPNHRSVLSDPLRNPSAAPQTLLNTDVRTADKLRLFRLQRELAGVEPVELLSRGGTTIREYLADYGFSKRFVERFAAPFYGGITLDRSLGTDSSIFEYTYKMLSEGEIFVPADGMQAMPRQLADRARSAGATIETDAPVTELETHEGEVTAEVGRETVTAESAVVATDPQTAAELTDIDAIPTEPVGCVTQYFALPTNRAPATGQRIILNATDDRPNTVAPLSAVASEYAPAGMELYSATFLGTPEEDDAELAAEVRAALQSWYPNASFEALELLRTDRVPLSQFAQPPGYRDALPDPTAPEGNAVLAGDYTRWSAIQGALESGKVAADLLRLEHHHHHH” the “soluble on expression in E. coli” value was “not soluble”.
With “MPNTLKRLIPDPEVIKLQQLLSSNGYFEEIKPSHGLFDGITFDNAVLFQLQHIYKDGDPLKPDGVIGAKTWWALKNPSGEKQRNHLSASIPAGLTTKRHQLIELIIEEHSKPVFEVPDGSNRSPDIDGYWGNTGVIGLAWCCAFVSWVLKEVTDSYPIASTHHLGVQRMWRTAKRLNMTTEIPKPGDIFVQLFAGGKGHTGFVVAVTEDGETIYTCEGNCGNRLKIGKRSNNSELHFIDCLQDNQTLDFERMAFDVNSTIDNTTRLEHHHHHH” the “soluble on expression in E. coli” value was “not soluble”.
For “MSVTYDDSVGVEVSSDSFWEVGNYKRTVKRIDDGHRLCSDLMNCLHERARIEKAYAQQLTEWARRWRQLVEKGPQYGTVEKAWMAFMSEAERVSELHLEVKASLMNDDFEKIKNWQKEAFHKQMMGGFKETKEAEDGFRKAQKPWAKKLKEVEAAKKAHHAACKEEKLAISREANSKADPSLNPEQLKKLQDKIEKCKQDVLKTKEKYEKSLKELDQGTPQYMENMEQVFEQCQQFEEKRLRFFREVLLEVQKHLDLSNVAGYKAIYHDLEQSIRAADAVEDLRWFRANHGPGMAMNWPQFEEWSADLNRTLSRREKKKATDGVTLTGINQTGDQSLPSKPSSTLNVPSNPAQSAQSQSSYNPFEDEDDTGSTVSEKDDTKAKNVSSYEKTQSYPTDWSDDESNNPFSSTDANGDSNPFDDDATSGTEVRVRALYDYEGQEHDELSFKAGDELTKMEDEDEQGWCKGRLDNGQVGLYPANYVEAIQ”, the “soluble on expression in E. coli” value was “soluble”.
In the case of “MSFALGQRWISDTESDLGLGTVVALDARTVTLMFAASEENRVYARSDAPVTRVIFNVGDVVDSQQGWSLQVEQVVEDQGVYTYLGTRVDTEESGVALREIFLSNQIRFNKPQDKLFAGQIDRMDNFVLRY”, the “soluble on expression in E. coli” value is reported as “not soluble”.
In the case of “MAQENSTVKPTQAELTLLNVLWKMGPATVRQVHDVVSTTQKTGYTTVLKILQIMHEKSLVIRDESNRAHVYAAANSQTQTQSSLIKDLISKAFGGSTSKLVMRAIDDSTSEQEINDIRQLLNSLEK”, the “soluble on expression in E. coli” value is reported as “not soluble”.
With “MAHHHHHHMMSTYMTRYDYDYNRDPSLTGSDGGSGGGFEQEISGEVRNRPIFAYGVDTGDRDDRTIYQVDYTHKDRSVKNMAGLAATLKGSAASAAAARMRGQDNGTAYQHNWYLPAASAHVVLVDGSHPHTVYQDDYQAPRHVAGGAVHDPVCYAGAAAAAYNADLLKPHGVMEDDGADLAPKITSKESLLPRKHASPNATWTPVFENTADHRHTWNDCVPGDGVVGTYVCTSWDYGDTSQAHPLQLPLSLARSLAAHNLDASANPDKAALLRHLAGKNYSSRTLRGSSSGAPLDTNDRTNPQFLSTVEQKRCAVSRRLEKEHYVTMSIYKSDFIDQGLLPELPGNPGGPADVRDTHTSPLATAGEMMAGQLTTATRELGLLRNAHGTLKSGEAHAASRVSTGVLSAMRAMEKAASIDKADPHCHKLCE” the “soluble on expression in E. coli” value was “not soluble”.
In the case of “MSLQNAKLMLTCLAFAGLAALAGCSFPGVYKIDIQQGNVVTQDMIDQLRPGMTRRQVRFIMGNPLIVDTFHANRWDYLYSIQPGGGRRQQERVSLFFNDSDQLAGLNGDFMPGVSRDEAILGKEGSTTVTQPADQQKPEAQKEEPPKPGSTLEQLQREVDEAQPVPVPTPEPLDPSPQEGHHHHHH”, the “soluble on expression in E. coli” value is reported as “soluble”.
For “MGNLICTKNGGEPEIMVAAHMDEIGFAVKYIDDKGFIRIAPIGGWFSQIALAQRVVLYGKKKVYGVIGCKPPHLMKDEERKKGIEIKDMFVDIGASSKEEVLEMGINVGTPVALDREIVELANGRITGKAFDNRVGVAVMIEAVRRAKADITIHAVATVQEEVGLKGARTSAFAIEPTAAIAVDTCVAADFPGSESAHMDVKLGKGAAITVIDASGRGLIASPKVLRWLTETAEKYGIPYQLEVAEGGTTDATAIHLTKAGIPAGVVSVPARYIHSPVEVVDLKDVESAVEIVARAIENAKNYF”, the “soluble on expression in E. coli” value was “soluble”.
For “MMSGAEEPVAIIFPQSASDGVEVLYQEFSFGRYFNQIAAGVLRGIVQTRQPRQPLRILEVGGGTGGTTAWLLPELNGVPALEYHFTDISALFTRRAQQKFADYDFVKYSELDLEKEAQSQGFQAQSYDLIVAANVIHATRHIGRTLDNLRPLLKPGGRLLMREITQPMRLFDFVFGPLVLPLQDLDAREGELFLTTAQWQQQCRHAGFSKVAWLPQDGSPT”, the “soluble on expression in E. coli” value was “not soluble”.

Reference: the DeepSol protein solubility set
